# Test results taken from US20120245221A1, “ANTI-APOPTOTIC AGENTS AND USES THEREOF” (priority 2009, published 2012).
# B1: PDNF: Trypanosoma cruzi membrane-bound neuraminidase/trans-sialidase; clone 19Y expressed in Schwann cell cytosol from pIRES2-DsRed-Express plasmid (protein, listed as Trypanosoma cruzi)
# chain: MGKTVVVASRMFWLMFFVPLLLAICPSEPAYALAPGSSRVELFKRKNSTVPFEDKAGKVTERVVHSFRLPALVNVDGVMVAIADARYDTSNDNSLIDTVAKYSVDDGETWETQIAIKNSRVSSVSRVVDPTVIVKGNKLYVLVGSYYSSRSYWSSHGDARDWDILLAVGEVTKSTAGGKITASIKWGSPVSLKKFFPAEMEGMHTNQFLGGAGVAIVASNGNLVYPVQVTNKKKQVFSKIFYSEDDGKTWKFGKGRSDFGCSEPVALEWEGKLIINTRVDWKRRLVYESSDMEKPWVEAVGTVSRVWGPSPKSNQPGSQSSFTAVTIEGMRVMLFTHPLNFKGRWLRDRLNLWLTDNQRIYNVGQVSIGDENSAYSSVLYKDDKLYCLHEINTDEVYSLVFARLVGELRIIKSVLRSWKNWDSHLSSICTPADPAASSSESGCGPAVTTVGLVGFLSGNASQNVWEDAYRCVNASTANAERVRNGLKFAGVGGGALWPVSQQGQNQRYRFANHAFTLVASVTIHEAPRAASPLLGASLDSSGGKKLLGLSYDEKHQWQPIYGSTPVTPTGSWETGKRYHLVLTMANKIGSVYIDGELLEGSGQTVVPDGRTPDISHFYVGGYKRSDMPTISHVTVNNVLLYNRQLNTEEIRTLFLSQDLIGTEAHM
# What was measured:
# [1] = system: Akt; assay: Akt-dependent phosphorylation of PDNF in Schwann cells (immunoprecipitation with TCN-2, Western blotting); assay type: cell-based, human
# Experimental: To provide further evidence that the phosphorylation of PDNF depended on host […], T. cruzi-infected Schwann cells were treated with LY294002, a pharmacological inhibitor of PI3K, which phosphorylates and activates Akt (10), and with Akti VIII, a specific allosteric inhibitor of Akt that prevents the phosphorylation of Akt at Ser^473 and Thr^308, which is critical for the activation of Akt (25). Lysates of treated cells were assayed for phosphorylated Akt (pAkt) and, after immunoprecipitation with a PDNF-specific antibody, for the presence of Akt-phosphorylated substrates. […] The conclusion that PDNF was a substrate of Akt was further reinforced by in vitro kinase assays.
# (§1) Cell monolayers were lysed with lysis buffer (20 mM tris-HCl (pH 7.5), 150 mM NaCl, 1 mM EDTA, 1% Triton X-100, 2.5 mM sodium pyrophosphate, 1 mM glycerophosphate, 1 mM Na3VO4, 1 μg/mL leupeptin and 1 mM phenylmethylsulfonyl fluoride (PMSF)) on ice for 10 min, cleared by centrifugation (12,000×g for 10 min at 4° C.) and immunoprecipitated with an antibody specific for Akt-phosphorylated substrate or with TCN-2 at 4° C. overnight Immunoprecipitates were collected with protein G-Sepharose for 2 hours at 4° C., washed with lysis buffer, and resuspended in SDS-sample buffer for SDS-PAGE and Western blotting analysis. In other experiments, total cell lysates (30 to 50 μg of protein) were resolved by SDS-PAGE, transferred to nitrocellulose membranes, and incubated with the relevant primary antibodies, followed by incubation with HRP-conjugated secondary antibody and visualization by ECL.
# [2] = system: Schwann cells; assay type: cell-based, human; conditions: 100 μM H2O2, 24 hours
# Experimental: (§2) Immortalized human Schwann cells (54) were maintained in DMEM supplemented with 10% FCS and penicillin/streptomycin at 37° C. in 5% CO2. Infections were performed with T. cruzi trypomastigotes (Silvio strain) at 2×10^5 parasites/ml or at a parasite:cell ratio of 50:1. After 2 or 3 hours, monolayers were washed to remove unattached parasites and cells were then maintained in medium containing 2% FCS for 3 to 5 days to complete the intracellular infection cycle.
# (§3) Infected Schwann cells, Sc-Red cells, and Sc-PDNF cells were treated for 24 hours with 100 to 500 μM H2O2 with or without pretreatment with the Akt inhibitor Akti VIII (10 μM), fixed, and visualized by fluorescence microscopy after staining with DAPI and TUNEL reagents with the In Situ Cell Death Detection kit (Roche). Cell survival was measured by MTT-based CellTiter kit (Promega). Alternatively, Sc-Red and Sc-PDNF cells were grown for 4 days in DMEM, 1% bovine serum albumin (BSA) with or without TNF-α (20 ng/ml) and TGF-β1 (40 ng/ml) and with or without Akti VIII (10 μM).
# [3] = system: Schwann cells; assay: TNF-α and TGF-β induced apoptosis, TUNEL assay; assay type: cell-based, human; conditions: TNF-α 20 ng/ml and TGF-β 40 ng/ml
# Experimental: as §3
# [4] = system: Schwann cells; assay: H2O2-induced apoptosis, TUNEL assay; assay type: cell-based, human
# Experimental: as §3
# [5] = system: bacterially-expressed PDNF (recombinant full-length PDNF, clone 19Y, expressed in E. coli)
# [6] = target: Akt kinase, endogenous protein of immortalized human Schwann cells (human) (UniProt P31749); assay: cell-based or functional assay
# [7] = system: Akt3; assay: Real-time PCR, Sc-PDNF vs Sc-Red cells: Akt3; assay type: cell-based, human; conditions: PDNF-transfected Schwann cells vs control cells
# Experimental: (§4) These assays were performed as described previously (57, 58). In brief, RNA was isolated with the Trizol reagent and chloroform, cDNA was synthesized from 500 ng of total RNA with Superscript III reverse transcriptase primed with random hexamers, and quantitative PCR reactions were performed with QuantiTect SYBR Green PCR kit (Qiagen) on an Applied Biosystems 7300 Real-Time PCR system. Conditions for the PCR reactions were: 95° C. for 15 min, followed by 50 cycles at 94° C. for 15 s, 54° C. for 30 s, and 72° C. for 45 s, concluding with a dissociation stage to measure amplification product specificity. Primers used to calculate Akt expression were synthesized as described previously (57). Experiments were performed in triplicate, and fold differences were calculated by the 2^−ΔΔCt method (ΔΔCt=(Cttarget gene−Ctb-actin)treated−(Cttarget gene−Ctb-actin)untreated) as described previously (58).
# [8] = system: Akt; assay: Western blotting of pAkt (activation of Akt) in Schwann cells; assay type: cell-based, human; conditions: Schwann cell-expressed PDNF compared to control transfected cells
# Experimental: as §2
# The coding region of the gene encoding PDNF (formerly T. cruzi neuraminidase, or TCNA) was amplified from the TS19y clone (20) with the primers TCNA-F: 5′-[…]-3′ (SEQ ID NO: 11) and TCNA-R: 5′-[…] (SEQ ID NO: 12) (restriction sites for XhoI and SacII are underlined) and inserted into the pIRES2-DsRed-Express vector (Clontech). Selected recombinant plasmids were purified with the Qiagen kit, sequenced at Tufts University Core facility, and used for transfections. Cells were plated at 1×10^5 cells/ml in 100-mm plates 20 hours before their transfection with 10 μg of total DNA per plate with the FuGENE HD transfection reagent (Roche Diagnostics) as recommended by the manufacturer. Transfected cells were selected with G418 (1 mg/ml) and analyzed for the presence of PDNF by Western blotting and trans-sialidase activity assays (26). […]
# [9] = system: Akt2; assay: Real-time PCR, Sc-PDNF vs Sc-Red cells: Akt2; assay type: cell-based, human; conditions: PDNF-expressing cells vs control cells, p<0.05
# Experimental: as §4
# [10] = system: Akt3; assay: cDNA microarray, Sc-PDNF vs Sc-Red cells: Akt3 mRNA; assay type: cell-based, human; conditions: Schwann cells expressing PDNF vs control cells
# Experimental: (§5) These analyses were performed as described previously (55, 56). The concentration and quality of total RNA isolated from Sc-Red cells and Sc-PDNF cells were estimated by spectrophotometry (A260 nm/A280 nm of 1.9 to 2.1) and by agarose gel electrophoresis. Hybridization and data analysis were performed by the Tufts Expression Array Core with cDNAs prepared from Sc-Red cells and Sc-PDNF cells labeled with aminoallyl (aa)-dUTP Cy3 or Cy5 dyes, respectively. The two differently dye-labeled cDNAs were hybridized with the same microarray slide containing 48,500 human genes (Microarrays Inc) for 16 hours. After washing, the slide was scanned at 550 nm and 649 nm for Cy-3 and Cy-5 dyes, respectively, in a ScanArray 4000 scanner (PerkinElmer). Images were overlaid and analyzed with QuantArray spot quantification software (Packard BioChip Technologies). The ratio of both fluorescence intensities for each spot reflected the ratio of each gene expressed in the control and treatment samples. […] For each gene, ratios of red (Cy-5) over green (Cy-3) intensities (I) were calculated and normalized through a Lowess Fit of the log2 ratios (log2(Icy-5/Icy-3)) over the log2 of the total intensity (log2(Icy-5. Icy-3)). Mean ratios were calculated from the duplicate spots, and only values with a covariance (CV) b0.5 were further taken into account. […]
# [11] = system: other protein kinases; assay: cDNA microarray, Sc-PDNF vs Sc-Red cells: other protein kinase mRNAs; assay type: cell-based, human; conditions: Schwann cells expressing PDNF vs control cells
# Experimental: as §5
# [12] = system: mitochondrial protein BAX; assay: cDNA microarray, Sc-PDNF vs Sc-Red cells: BAX mRNA; assay type: cell-based, human; conditions: PDNF-expressing Schwann cells vs control cells
# Experimental: as §5
# [13] = system: caspase-9; assay: cDNA microarray, Sc-PDNF vs Sc-Red cells: caspase-9 mRNA; assay type: cell-based, human; conditions: PDNF-expressing Schwann cells vs control cells
# Experimental: as §5
# [14] = system: transcription factor FOXO; assay: cDNA microarray, Sc-PDNF vs Sc-Red cells: FOXO mRNA; assay type: cell-based, human; conditions: PDNF-expressing Schwann cells vs control cells
# Experimental: as §5
# [15] = system: Akt; assay: Coimmunoprecipitation of PDNF and Akt; assay type: binding; conditions: lysates of T. cruzi-infected human Schwann cells, 4 days; IP with mAb TCN-2
# Experimental: We infected Schwann cells with T. cruzi for 2 hours, removed parasites from the medium overlay by washing, and cultured the cells for 4 days to allow intracellular parasites to differentiate, grow, and multiply. Lysates of uninfected and infected Schwann cells were immunoprecipitated with the monoclonal antibody (mAb) TCN-2, which is specific for the C-terminal tandem repeat unit of PDNF (FIG. 1A) (23), and Western blots of these immunoprecipitates were incubated with PDNF— and Akt-specific antibodies.
# as §1
# [16] = T. cruzi-infected Schwann cells treated with inhibitor for 24 hours
molecule,measurement,setting,value
O=c1[nH]c2ccccc2n1C1CCN(Cc2ccc(-c3nc4cc5[nH]cnc5cc4nc3-c3ccccc3)cc2)CC1 [Akti VIII],extent of the phosphorylation of PDNF,"[1]; Schwann cells transfected with plasmid encoding PDNF, inhibitor for 24 hours",substantially decreased
same,abundance of activated Akt (pAkt),[1]; [16],reduction in abundance of activated Akt
same,abundance of unphosphorylated PDNF,[1]; [16],did not affect
same,phosphorylation of PDNF,[1]; [16],inhibition of the phosphorylation of PDNF
same,effect of Akt inhibitor on survival-promoting activity of PDNF,[2]; Sc-PDNF cells pretreated with Akti VIII 10 μM,abrogated
same,effect of Akt inhibitor on resistance of infected cells to oxidative stress,[2]; T. cruzi-infected Schwann cells pretreated with Akti VIII 10 μM,lost
same,effect of Akt inhibitor on anti-apoptotic effect of intracellular PDNF,[3]; Akti VIII 10 μM,abolished
"OO [H2O2, hydrogen peroxide]",apoptosis induced in uninfected Schwann cells,"[4]; 100 μM H2O2, 6 hours",~25%
same,uninfected cells with apoptosis-related DNA damage,"[4]; 500 μM H2O2, 24 hours",~90%
same,cell survival of uninfected Schwann cells,[2],only half of the cells survived
"Akt kinase, endogenous protein of immortalized human Schwann cells","in vitro kinase assay: phosphorylation of bPDNF by immuno-purified Akt, Western blot with antibody against Akt-phosphorylated substrates",[5],generated phosphorylated PDNF in vitro in a dose-dependent and ATP-dependent manner
PDNF expressed in the cytosol of human Schwann cells transfected with pIRES2-DsRed-Express carrying,apoptosis (TUNEL assay) of Sc-PDNF cells in TNF-α (20 ng/ml) and TGF-β (40 ng/ml),[6],2.5 % of cells
PDNF expressed in the cytosol of human Schwann cells transfected with pIRES2-DsRed-Express carrying (enzyme),"abundance of pAkt (Ser^473), Western blot with scanning densitometry, Sc-PDNF against control transfected cells",[6],5 fold
same,"abundance of pAkt (Thr^308), Western blot with scanning densitometry, Sc-PDNF against control transfected cells",[6],6 fold
B1,increased expression of the gene encoding Akt3,[7],3 fold
same,increase in the abundance of pAkt (Ser473),[8],five-fold
same,increase in the abundance of pAkt (Thr308),[8],six-fold
same,protection from H2O2-induced oxidative stress,[2]; Schwann cells transfected with plasmid encoding PDNF,protected from H2O2-induced oxidative stress
same,increase in the mRNA for Akt2,[9],~5.0 fold
same,Akt3 mRNA more abundant,[10],~3 fold
same,abundance of the mRNAs for other protein kinases,[11],unaltered
same,BAX mRNA reduced in abundance,[12],~2.6 fold
same,caspase-9 mRNA reduced in abundance,[13],~5.0 fold
same,FOXO mRNA reduced in abundance,[14],~4.0 fold
same,cells that underwent apoptosis (TUNEL-positive),"[3]; PDNF in Schwann cell cytosol, 4 days",2.5%±0.7
same,physical interaction between PDNF and Akt,[15],coimmunoprecipitated PDNF and Akt
